Measured values published in patent US20200392225A1 (Novartis, published 2020).
Each block holds one binder with its values, some of them ahead of it.

Tests used:
[1] = target: T1, constitutively active human NPR1 mutant (W74R), recombinant antigen (human, UniProt P16066 33-473); experiment: ELISA, IgG titrated on the antigen without ANP
T1 construct: also called W74R hNPR1
T1 sequence: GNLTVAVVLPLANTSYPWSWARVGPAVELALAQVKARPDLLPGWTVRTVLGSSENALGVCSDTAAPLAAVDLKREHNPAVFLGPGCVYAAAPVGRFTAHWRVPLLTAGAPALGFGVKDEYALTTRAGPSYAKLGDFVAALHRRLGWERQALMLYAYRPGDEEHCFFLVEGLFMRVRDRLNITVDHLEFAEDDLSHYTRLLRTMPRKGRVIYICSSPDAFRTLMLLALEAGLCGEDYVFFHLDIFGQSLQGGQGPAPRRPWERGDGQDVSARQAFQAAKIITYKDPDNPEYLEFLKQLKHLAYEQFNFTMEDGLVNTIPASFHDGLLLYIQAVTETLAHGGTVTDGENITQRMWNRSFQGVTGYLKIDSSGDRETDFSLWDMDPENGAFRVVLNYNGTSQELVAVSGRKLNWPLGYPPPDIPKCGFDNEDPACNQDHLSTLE

human NPR1-ANP complex [2] = target: T2, human NPR1-ANP complex (human, UniProt P01160 124-151, limits assumed); experiment: FRET assay on hNPR1, competitor Cy5-labeled ANP (half-maximal rise of the ANP signal) [cont.]
T2 construct: Receptor antigen measured in the presence of ANP; also called hNPR1 + ANP; hNPR1-ANP-complex
T2 sequence: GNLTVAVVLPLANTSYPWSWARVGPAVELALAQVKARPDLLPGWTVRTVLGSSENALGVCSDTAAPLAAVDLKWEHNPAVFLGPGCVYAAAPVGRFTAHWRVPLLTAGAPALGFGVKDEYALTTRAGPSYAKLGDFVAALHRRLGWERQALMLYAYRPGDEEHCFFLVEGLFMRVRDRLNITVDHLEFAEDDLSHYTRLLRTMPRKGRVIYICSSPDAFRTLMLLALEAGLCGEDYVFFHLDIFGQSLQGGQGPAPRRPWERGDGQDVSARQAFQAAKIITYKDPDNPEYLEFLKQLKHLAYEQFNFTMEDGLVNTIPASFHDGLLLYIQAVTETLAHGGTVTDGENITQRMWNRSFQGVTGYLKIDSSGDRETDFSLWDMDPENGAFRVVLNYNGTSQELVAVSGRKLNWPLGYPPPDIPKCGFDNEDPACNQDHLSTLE
T2 sequence (peptide): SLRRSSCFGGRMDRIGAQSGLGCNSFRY

[3] = target: T3, human NPR1 expressed on CHO-K1 cells in the presence of ANP (human, UniProt P01160 124-151); experiment: flow cytometry, hNPR1 expressing CHO-K1 cells with saturating ANP [cont.]
T3 construct: also called hNPR1 CHO K1 + 100 nM ANP
T3 sequence: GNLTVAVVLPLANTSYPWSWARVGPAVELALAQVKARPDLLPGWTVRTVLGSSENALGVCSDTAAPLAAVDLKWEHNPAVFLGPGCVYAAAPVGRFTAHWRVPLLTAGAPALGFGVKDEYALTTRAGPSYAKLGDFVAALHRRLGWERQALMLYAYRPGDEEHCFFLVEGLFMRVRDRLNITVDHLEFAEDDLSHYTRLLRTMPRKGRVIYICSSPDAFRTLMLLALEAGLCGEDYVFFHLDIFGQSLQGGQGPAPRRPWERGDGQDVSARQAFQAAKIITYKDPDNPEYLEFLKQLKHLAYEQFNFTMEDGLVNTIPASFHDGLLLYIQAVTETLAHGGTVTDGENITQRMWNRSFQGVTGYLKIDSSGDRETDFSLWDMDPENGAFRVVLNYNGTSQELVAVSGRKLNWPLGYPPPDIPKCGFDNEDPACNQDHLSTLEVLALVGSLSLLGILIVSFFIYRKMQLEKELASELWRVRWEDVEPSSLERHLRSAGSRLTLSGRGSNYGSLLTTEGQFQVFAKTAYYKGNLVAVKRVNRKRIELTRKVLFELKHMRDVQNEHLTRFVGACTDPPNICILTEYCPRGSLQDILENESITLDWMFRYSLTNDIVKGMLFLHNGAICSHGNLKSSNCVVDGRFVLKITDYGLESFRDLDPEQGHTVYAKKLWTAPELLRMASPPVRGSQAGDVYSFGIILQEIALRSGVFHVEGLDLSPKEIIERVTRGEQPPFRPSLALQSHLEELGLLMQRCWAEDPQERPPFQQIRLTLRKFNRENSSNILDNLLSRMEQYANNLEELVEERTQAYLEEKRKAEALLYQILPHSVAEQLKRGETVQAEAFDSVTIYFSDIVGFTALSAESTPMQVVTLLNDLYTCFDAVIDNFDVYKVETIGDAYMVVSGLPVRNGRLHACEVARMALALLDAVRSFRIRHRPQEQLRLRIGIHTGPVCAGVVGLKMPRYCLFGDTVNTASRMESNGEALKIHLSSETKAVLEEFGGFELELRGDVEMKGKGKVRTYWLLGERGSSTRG
T3 sequence (peptide): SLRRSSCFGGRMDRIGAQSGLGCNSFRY

[4] = target: T3, human NPR1 expressed on CHO-K1 cells in …; experiment: flow cytometry, 1 uM IgG, +100 nM ANP
human NPR1-ANP complex [5] = target: T2, human NPR1-ANP complex; experiment: ELISA, 1 uM IgG, +100 nM ANP
rat NPR1-ANP complex = target: T4, rat NPR1-ANP complex (rat); experiment: ELISA, 1 uM IgG, +100 nM ANP
T4 construct: Rat receptor antigen measured in the presence of ANP; also called rNPR1 + ANP; rNPR1-ANP-complex

[6] = target: T1, constitutively active human NPR1 mutant …; experiment: ELISA, IgG titrated on the antigen without ANP [cont.]
[7] = target: T5, human NPR1 expressed on CHO-K1 cells (human, UniProt P16066 33-1061); experiment: cell-based or functional assay
T5 sequence: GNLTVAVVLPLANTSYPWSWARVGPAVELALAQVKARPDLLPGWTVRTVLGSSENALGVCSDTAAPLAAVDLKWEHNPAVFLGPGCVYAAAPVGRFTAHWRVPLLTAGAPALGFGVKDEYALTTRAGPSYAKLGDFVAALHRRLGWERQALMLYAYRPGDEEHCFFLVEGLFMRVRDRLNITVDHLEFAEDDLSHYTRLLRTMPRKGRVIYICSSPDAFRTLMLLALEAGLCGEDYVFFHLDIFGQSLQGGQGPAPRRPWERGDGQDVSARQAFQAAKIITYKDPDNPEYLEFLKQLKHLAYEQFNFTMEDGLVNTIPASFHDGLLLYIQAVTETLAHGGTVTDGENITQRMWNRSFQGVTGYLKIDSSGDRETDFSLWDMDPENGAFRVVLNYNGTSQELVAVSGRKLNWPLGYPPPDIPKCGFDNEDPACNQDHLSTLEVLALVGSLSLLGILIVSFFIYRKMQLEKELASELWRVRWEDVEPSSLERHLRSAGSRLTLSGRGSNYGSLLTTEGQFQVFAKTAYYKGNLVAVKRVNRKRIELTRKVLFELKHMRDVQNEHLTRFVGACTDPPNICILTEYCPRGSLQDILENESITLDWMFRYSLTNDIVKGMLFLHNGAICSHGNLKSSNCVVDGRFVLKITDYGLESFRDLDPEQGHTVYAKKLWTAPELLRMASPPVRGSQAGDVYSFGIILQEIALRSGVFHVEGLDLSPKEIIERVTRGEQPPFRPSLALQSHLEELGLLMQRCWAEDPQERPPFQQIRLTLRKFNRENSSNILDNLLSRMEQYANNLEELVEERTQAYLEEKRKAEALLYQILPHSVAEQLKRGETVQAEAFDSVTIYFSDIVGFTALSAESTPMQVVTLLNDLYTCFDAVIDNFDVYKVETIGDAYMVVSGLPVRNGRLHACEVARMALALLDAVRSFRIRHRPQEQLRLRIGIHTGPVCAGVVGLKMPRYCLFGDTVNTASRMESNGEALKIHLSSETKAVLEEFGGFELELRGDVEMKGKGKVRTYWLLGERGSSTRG

[8] = target: T5, human NPR1 expressed on CHO-K1 cells; experiment: flow cytometry, 1 uM IgG
[9] = target: T1, constitutively active human NPR1 mutant …; experiment: ELISA, 1 uM IgG
[10] = target: T6, rat NPR1, recombinant antigen (rat, UniProt P18910 29-469); experiment: ELISA, 1 uM IgG
T6 construct: NCBI NP_036745.1 printed; also called rNPR1
T6 sequence: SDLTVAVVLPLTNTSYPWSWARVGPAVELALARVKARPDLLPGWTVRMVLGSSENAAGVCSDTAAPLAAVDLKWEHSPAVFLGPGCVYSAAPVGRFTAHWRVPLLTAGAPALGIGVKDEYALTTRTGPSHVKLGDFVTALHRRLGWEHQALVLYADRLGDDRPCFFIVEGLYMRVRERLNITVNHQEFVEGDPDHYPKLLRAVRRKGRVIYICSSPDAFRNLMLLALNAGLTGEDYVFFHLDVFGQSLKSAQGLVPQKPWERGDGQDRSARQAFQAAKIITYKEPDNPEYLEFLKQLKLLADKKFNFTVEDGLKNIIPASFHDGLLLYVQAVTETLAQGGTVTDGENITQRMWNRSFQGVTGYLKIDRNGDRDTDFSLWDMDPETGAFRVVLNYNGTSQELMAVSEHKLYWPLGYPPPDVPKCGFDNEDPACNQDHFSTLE

[11] = target: T7, human NPR1 (Natriuretic Peptide Receptor 1), recombinant antigen (human, UniProt P16066 33-473); experiment: ELISA, 1 uM IgG
T7 construct: also called hNPR1; NPR1-hFc
T7 sequence: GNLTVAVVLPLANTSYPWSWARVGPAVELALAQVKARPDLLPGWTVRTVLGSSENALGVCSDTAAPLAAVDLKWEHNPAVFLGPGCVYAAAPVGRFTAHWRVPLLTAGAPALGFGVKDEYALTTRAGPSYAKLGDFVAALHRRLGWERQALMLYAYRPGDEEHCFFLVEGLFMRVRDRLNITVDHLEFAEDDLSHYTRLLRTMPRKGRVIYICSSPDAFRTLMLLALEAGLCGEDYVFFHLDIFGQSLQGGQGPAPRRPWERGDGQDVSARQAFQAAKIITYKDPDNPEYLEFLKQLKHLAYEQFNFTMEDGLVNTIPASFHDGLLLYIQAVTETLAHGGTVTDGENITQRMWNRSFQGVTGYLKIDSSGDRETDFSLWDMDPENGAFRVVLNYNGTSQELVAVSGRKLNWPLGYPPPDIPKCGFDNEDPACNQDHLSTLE

EC50 (read off the curve) [1]: ~2 nM
B1: YY02 IgG (YY02_LALA) (antibody, V domains shown)
VH: EVQLVESGGGLVKPGGSLRLSCAASGFTFSSYSMNWVRQAPGKGLEWVSSISSSSSYIYYADSVKGRFTISRDNAKNSLYLQMNSLRAEDTAVYYCARSGYRGVYGFDYWGQGTLVTVSS
VL: DIQMTQSPSSVSASVGDRVTITCRASQGISSWLAWYQQKPGKAPKLLIYAASSLQSGVPSRFSGSGSGTDFTLTISSLQPEDFATYYCQQYYHSPLTFGQGTKVEIKR

EC50 (read off the curve) (human NPR1-ANP complex [2]): ~0.5 nM
EC50 (read off the curve) [3]: ~0.9 nM
B2: XX12 IgG (antibody, V domains shown)
VH: QVQLLESGGGLVQPGGSLRLSCAASGFTFSSYWMNWVRQAPGKGLEWVSAISSDGSYTYYADSVKGRFTISRDNSKNTLYLQMNSLRAEDTAVYYCARDRYSMIYSYGAGAFDYWGQGTLVTVSS
VL: DIQMTQSPSSLSASVGDRVTITCRASQGISSYLAWYQQKPGKAPKLLIYTASTLQSGVPSRFSGSGSGTDFTLTISSLQPEDFATYYCQQIWMAPRTFGQGTKVEIKR
notes: also called XX12_LALA

flow cytometry S/BG [4]: 5 S/BG
ELISA IgG binding at 1 uM IgG (unit not given) (human NPR1-ANP complex [5]): 32
ELISA IgG binding at 1 uM IgG (unit not given) (rat NPR1-ANP complex): 16
EC50 (read off the curve) [6]: ~1 nM
cGMP conc [nM] at 1 uM IgG, +0.075 nM ANP [7]: 15 nM
cGMP conc [nM] at 1 uM IgG, without ANP [7]: 13 nM
flow cytometry S/BG [8]: 15 S/BG
ELISA IgG binding at 1 uM IgG (unit not given) [9]: 69
ELISA IgG binding at 1 uM IgG (unit not given) [10]: 11
ELISA IgG binding at 1 uM IgG (unit not given) [11]: 81
B3: YY05 IgG (YY05_LALA) (antibody, V domains shown)
VH: EVQLVQSGAEVKKPGESLKISCKGSGYSFTSYWISWVRQMPGKGLEWMGIIYPGTSYTRYSPSFQGQVTISADKSISTAYLQWSSLKASDTAMYYCARGAVAGQLGFDHWGQGTLVTVSS
VL: QSVLTQPPSVSGAPGQRVTISCTGSSSNIGAGYDVHWYQQLPGTAPKLLIYGNSNRPSGVPDRFSGSKSGTSASLAITGLQAEDEADYYCQSYYTSSHGPVFGGGTKLTVLG
